Results published in patent US20230137139A1, “BIOSYNTHESIS OF CANNABINOIDS AND C[…]” (priority 2020, published 2023).
Positions count from the first letter of the chain named.

B1: t865736 (protein)
chain: MGNTTSIAGRDCLISALGGNSALAVFPNELLWTADVHEYNLNLPVTPAAITYPETAAQIAGVVKCASDYDYKVQARSGGHSFGNYGLGGADGAVVVDMKHFTQFSMDDETYEAVIGPGTTLNDVDIELYNNGKRAMAHGVCPTIKTGGHFTIGGLGPTARQWGLALDHVEEVEVVLANSSIVRASNTQNQDVFFAVKGAAANFGIVTEFKVRTEPAPGLAVQYSYTFNLGSTAEKAQFVKDWQSFISAKNLTRQFYNNMVIFDGDIILEGLFFGSKEQYDALGLEDHFAPKNPGSILVLTDWLGMVGHALEDTILKLVGNTPTWFYAKSLGFRQDTLIPSAGIDEFFEYIANHTAGTPAWFVTLSLEGGAINDVAEDATAYAHRDVLFWVQLFMVNPVGPISDTTYEFTDGLYDVLARAVPESVGHAYLGCPDPRMEDAQQKYWRTNLPRLQELKEELDPKNTFHHPQGVMPA
B2: t865732 (protein)
chain: B1 chain with S295N, H426Y
B3: t865747 (protein)
chain: B1 chain with S295N, V398A
modifications: expressed in S. cerevisiae strain
B4: t865742 (protein)
chain: B1 chain with E112T, S295N
B5: t865748 (protein)
chain: B1 chain with Y39F, S295N
modifications: expressed in S. cerevisiae strain
B6: t865718 (protein)
chain: B1 chain with S295N, P472R
B7: t865724 (protein)
chain: B1 chain with T102N, S295N
B8: t865735 (protein)
chain: B1 chain with S295N, T446P
B9: t865755 (protein)
chain: B1 chain with S295N, L392H
modifications: expressed in S. cerevisiae strain
B10: t865730 (protein)
chain: B1 chain with N202G, S295N
B11: t865745 (protein)
chain: B1 chain with V63I, S295N
modifications: expressed in S. cerevisiae strain

test system: CBCVA, THCVA, and CBDVA production; test: In vivo TS activity assay, Example 2 protein engineering of A. niger CBCAS, cultures fed divaric acid; format: cell-based, S. cerevisiae; conditions: S. cerevisiae strains expressing A. niger CBCAS mutants, secondary screen, fed divaric acid
How it was run: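 Quantification by LC-MS of methanol-extracted production cultures, strains in quadruplicate. Yeast carrying mutant A. niger CBCAS (MFalpha2 N-terminal and HDEL C-terminal signal peptides) were induced 4 days at 20 °C in YEP+4% galactose fed 1 mM divaric acid, re-dosed every 24 h with 2% galactose and 1 mM divaric acid, after 2 days of dextrose preculture at 30 °C; 100 mM citrate pH 5.5 was then added for 2 more days.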

Molecule | Mean CBCVA [µg/L] | Mean CBDVA [µg/L] | Mean THCVA [µg/L]
B1 | 3847.79 | 0.00 | 1963.40
B2 | 4734.85 | 0.00 | 2408.74
B3 | 5571.51 | 0.00 | 2154.32
B4 | 2864.87 | 0.00 | 1514.38
B5 | 3759.89 | 0.00 | 1591.63
B6 | 5888.44 | 0.00 | 2516.89
B7 | 2190.11 | 0.00 | 1153.25
B8 | 2900.35 | 0.00 | 1459.81
B9 | 3729.91 | 0.00 | 1768.56
B10 | 3406.05 | 0.00 | 1922.88
B11 | 7068.26 | 0.00 | 2991.05

same assay, conditions: secondary screen

Molecule | average CBCVA titer compared with the A. niger positive control
B1 | higher
B2 | higher
B3 | higher
B5 | higher
B6 | higher
B9 | higher
B11 | higher

same assay, conditions: share of terminal cannabinoid product profile, fed divaric acid

Molecule | % CBCVA [%] | % CBDVA [%] | % THCVA [%]
B1 | 66.21 | 0.00 | 33.79
B2 | 66.28 | 0.00 | 33.72
B3 | 72.12 | 0.00 | 27.88
B4 | 65.42 | 0.00 | 34.58
B5 | 70.26 | 0.00 | 29.74
B6 | 70.06 | 0.00 | 29.94
B7 | 65.51 | 0.00 | 34.49
B8 | 66.52 | 0.00 | 33.48
B9 | 67.84 | 0.00 | 32.16
B10 | 63.92 | 0.00 | 36.08
B11 | 70.27 | 0.00 | 29.73

test system: CBCA, THCA, and CBDA production; test: In vivo TS activity assay, Example 2 protein engineering of A. niger CBCAS, cultures fed olivetolic acid; format: cell-based, S. cerevisiae; conditions: secondary screen, olivetolic acid (Table 8)
How it was run: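 CBCA, THCA and CBDA were measured by LC-MS in methanol extracts of yeast cultures expressing mutant A. niger CBCAS. Cultures were induced at 20 °C with galactose and fed 1 mM olivetolic acid daily for 4 days, then buffered with 100 mM sodium citrate pH 5.5. Secondary screen: quadruplicates fed 1 mM olivetolic or divaric acid.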

Molecule | Mean CBCA [µg/L] | Mean CBDA [µg/L] | Mean THCA [µg/L]
B1 | 24918.92 | 6931.79 | 1690.72
B2 | 22672.81 | 6720.79 | 1523.15
B3 | 18021.77 | 4783.24 | 1188.04
B4 | 31427.04 | 9022.22 | 2036.13
B5 | 21260.42 | 6161.32 | 1575.92
B6 | 28669.67 | 7340.65 | 1640.20
B7 | 30758.44 | 7663.56 | 2146.00
B8 | 27519.94 | 7436.20 | 1783.72
B9 | 19432.21 | 4507.57 | 1001.22
B10 | 27874.45 | 8385.38 | 1771.94
B11 | 27923.31 | 7360.14 | 1963.25

same assay, conditions: share of terminal cannabinoid product profile

Molecule | % CBCA [%] | % CBDA [%] | % THCA [%]
B1 | 74.29 | 20.67 | 5.04
B2 | 73.34 | 21.74 | 4.93
B3 | 75.11 | 19.94 | 4.95
B4 | 73.97 | 21.24 | 4.79
B5 | 73.32 | 21.25 | 5.43
B6 | 76.15 | 19.50 | 4.36
B7 | 75.82 | 18.89 | 5.29
B8 | 74.90 | 20.24 | 4.85
B9 | 77.91 | 18.07 | 4.01
B10 | 73.29 | 22.05 | 4.66
B11 | 74.97 | 19.76 | 5.27
